Data: patent US20230357447A1 (JANUX THERAPEUTICS, published 2023)
Where two headings read alike, the source gives them in different places. Ends that are not written are not given here.

What was measured:
[1] = biological target: T1, Ab-12, anti-PD-L1xCD28 non-masked antibody in Vh format; assay: competition ELISA: peptide titrated against 5 nM Ab-12; binding of Ab-12 to captured biotinylated CD28 antigen is read; table prints 'IC50 nM' but the axis is Log [Peptide, uM] and the curve falls between Log 0.5 and Log 2
T1 construct: also called PDL1xCD28 non-masked (Vh)

[2] = biological target: T2, Anti-CD28 scFv (VH-linker 1-VL) (biotinylated (site not stated)); assay: phage ELISA, scFv wells pre-incubated with soluble CD28 (competitor); background signal 0.068
T2 construct: biotinylated and captured on neutravidin coated plates in the phage ELISA

[3] = biological target: T2, Anti-CD28 scFv (VH-linker 1-VL); assay: phage ELISA, captured biotinylated scFv; background signal 0.068
[4] = biological target: T2, Anti-CD28 scFv (VH-linker 1-VL); assay: phage ELISA, scFv wells pre-incubated with soluble CD28 (competitor); background signal 0.063
[5] = biological target: T2, Anti-CD28 scFv (VH-linker 1-VL); assay: phage ELISA, captured biotinylated scFv; background signal 0.063
[6] = biological target: T2, Anti-CD28 scFv (VH-linker 1-VL); assay: phage ELISA, captured biotinylated scFv; background signal 0.078
[7] = biological target: T2, Anti-CD28 scFv (VH-linker 1-VL); assay: phage ELISA, scFv wells pre-incubated with soluble CD28 (competitor); background signal 0.078
[8] = biological target: T1, Ab-12, anti-PD-L1xCD28 non-masked …; assay: competition ELISA: peptide titrated against 5 nM Ab-12; binding of Ab-12 to captured biotinylated CD28 antigen is read
[9] = biological target: T1, Ab-12, anti-PD-L1xCD28 non-masked …; assay: as above; remark: listed apart in the source
[10] = biological target: T3, anti-CD28 scFv (SEQ ID NO: 9); assay: competition ELISA: peptide titrated against 2 nM anti-CD28 scFv; binding of the scFv to captured biotinylated CD28 antigen is read
T3 construct: also called Anti-CD28 scFv (VH-linker 1-VL)

[11] = biological target: T3, anti-CD28 scFv (SEQ ID NO: 9); assay: as above; remark: listed apart in the source
[12] = biological target: T3, anti-CD28 scFv (SEQ ID NO: 9); assay: as above; remark: listed apart in the source
[13] = biological target: T1, Ab-12, anti-PD-L1xCD28 non-masked …; assay: competition ELISA: peptide titrated against 5 nM Ab-12; binding of Ab-12 to captured biotinylated CD28 antigen is read; remark: listed apart in the source
[14] = biological target: T3, anti-CD28 scFv (SEQ ID NO: 9); assay: competition ELISA: peptide titrated against 2 nM anti-CD28 scFv; binding of the scFv to captured biotinylated CD28 antigen is read; remark: listed apart in the source
[15] = biological target: T2, Anti-CD28 scFv (VH-linker 1-VL); assay: phage ELISA, captured biotinylated scFv; background signal 0.061
[16] = biological target: T2, Anti-CD28 scFv (VH-linker 1-VL); assay: phage ELISA, scFv wells pre-incubated with soluble CD28 (competitor); background signal 0.061
[17] = biological target: T1, Ab-12, anti-PD-L1xCD28 non-masked …; assay: competition ELISA: peptide titrated against 5 nM Ab-12; binding of Ab-12 to captured biotinylated CD28 antigen is read; table prints 'IC50 nM' but the axis is Log [Peptide, uM]
[18] = biological target: T3, anti-CD28 scFv (SEQ ID NO: 9); assay: competition ELISA: peptide titrated against 2 nM anti-CD28 scFv; binding of the scFv to captured biotinylated CD28 antigen is read; remark: listed apart in the source
[19] = biological target: T1, Ab-12, anti-PD-L1xCD28 non-masked …; assay: competition ELISA: peptide titrated against 5 nM Ab-12; binding of Ab-12 to captured biotinylated CD28 antigen is read; remark: listed apart in the source

B1: Peptide-12 (peptide)
peptide: GYCHYWGDMVMWCG
modifications: cysteine pairing not given here; also: biotinylated, site not given here
notes: also called Peptide-12_200 nM
[1]
  IC50: 21 nM

B2: Phage-54 (peptide)
peptide: MNWCPRDMWYQCFN
[2]
  Phage binding ELISA CD28 scFv signal in presence of CD28: 0.177
[3]
  Phage binding ELISA CD28 scFv signal: 1.95

B3: Phage-50 (peptide)
peptide: MDWCPPYLWNVCFS
[4]
  Phage binding ELISA CD28 scFv signal in presence of CD28: 0.1
[5]
  Phage binding ELISA CD28 scFv signal: 1.64

B4: Phage-25 (peptide)
peptide: MDWCPRDLWDLCFA
[6]
  Phage binding ELISA CD28 scFv signal: 2.7
[7]
  Phage binding ELISA CD28 scFv signal in presence of CD28: 0.219

B5: Peptide-51 (peptide)
peptide: MDWCPRERWVDCFF
[8]
  IC50: 2450 nM
[9]
  IC50: 2620 nM
[10]
  IC50: 1370 nM
[11]
  IC50: 1630 nM
[12]
  IC50 (read off the curve): ~2 µM
[13]
  IC50: 2430 nM
[14]
  IC50: 1650 nM

B6: Phage-40 (peptide)
peptide: MDWCPIDMWDQCFN
[15]
  Phage binding ELISA CD28 scFv signal: 2.66
[16]
  Phage binding ELISA CD28 scFv signal in presence of CD28: 0.297

B7: Phage-28 (peptide)
peptide: MDWCPRDLWSECFF
[2]
  Phage binding ELISA CD28 scFv signal in presence of CD28: 0.218
[3]
  Phage binding ELISA CD28 scFv signal: 2.57

B8: Phage-26 (peptide)
peptide: MDWCPRDLWHECFA
[4]
  Phage binding ELISA CD28 scFv signal in presence of CD28: 0.277
[5]
  Phage binding ELISA CD28 scFv signal: 2.71

B9: Phage-106 (peptide)
peptide: MDWCPIYLWDECFN
[16]
  Phage binding ELISA CD28 scFv signal in presence of CD28: 0.215

B10: Phage-63 (peptide)
peptide: MDWCPRALWAECFN
[2]
  Phage binding ELISA CD28 scFv signal in presence of CD28: 0.339
[3]
  Phage binding ELISA CD28 scFv signal: 2.68

B11: Phage-107 (peptide)
peptide: MDWCPRDLWAECFN
[16]
  Phage binding ELISA CD28 scFv signal in presence of CD28: 0.207

B12: Peptide-9 (peptide)
peptide: MDWCPRERWVDCFF
modifications: cysteine pairing not given here; also: biotinylated, site not given here
[8]
  IC50: 2240 nM
[9]
  IC50: 2630 nM
[17]
  IC50: 1.54 nM
[18]
  IC50 (read off the curve): ~2 µM
[11]
  IC50: 1280 nM
[13]
  IC50: 1860 nM
[19]
  IC50 (read off the curve): ~2 µM

B13: Phage-48 (peptide)
peptide: IDWCPRYLWDECYN
[15]
  Phage binding ELISA CD28 scFv signal: 2.24
[16]
  Phage binding ELISA CD28 scFv signal in presence of CD28: 0.153

B14: Phage-85 (peptide)
peptide: MDWCPMDLWYQCFN
[4]
  Phage binding ELISA CD28 scFv signal in presence of CD28: 0.187
[5]
  Phage binding ELISA CD28 scFv signal: 2.62
